{"source": "the nanobody polyreactivity screen of Harvey et al. (2022)"}
{"assay": "yeast display, Sf9 membrane polyspecificity reagent, FACS + sequencing; frameworks hold sequencing errors", "summary_of_the_method": "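Using colony PCR, genes from sorted yeast display clones were amplified, then sequenced on MiSeq at 2 × 250 and filtered by CDR length. The clones had been stained with 10% biotinylated, detergent-solubilized Sf9 membrane reagent for 1 hour at 4 °C and sorted by FACS into low and high (top ~1%) gates on anti-HA and streptavidin fluorescence. Polyreactivity labels come from the gate of origin.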"}
{"sequence": "QVQLVESGGGLVQAGGSLRLSCAASGSIFVGYTMGWYRQAPGKERELVAAITSTGGSTSYADSVKGRFTISRDNAKNTVYLQMNSLKPEDTAVYYCAARGRGKTTSVAYYYWGQGTQVTVSS", "polyreactivity (PSR sort gate)": "high polyreactivity"}
{"sequence": "QVQLVESGGGLVQAGGSLRLSCAASGSIFVGYTMGWYRQAPGKERELVADITYNGGTTYYADSVKGRFTISRDNAKNTVYLQMNSLKPEDSAVYYCAADYYYGWFPVYYWGQGTQVTVSS", "polyreactivity (PSR sort gate)": "high polyreactivity"}
{"sequence": "QVQLVESGGGLVQAGGSLRLSCAASGSIFVGYVMGWYRQAPGKERELVAAISKSGSRTYYADSVKGRFTISRDNAKYTVYLQMNSLKPEDTAVYYCATAGYDADDYWGQGTQVTVSS", "polyreactivity (PSR sort gate)": "high polyreactivity"}
{"sequence": "QVQLVESGGGLVQAGGSLRLSCAASGSIFVHNTMGWYRQAPGKERELVAAITRSVGRTYYADSVKGRFTISRDNAKNTVYLQMNSLKPEDTAVYYCAARKNYGSRLSYEYWGQGTQVTVSS", "polyreactivity (PSR sort gate)": "high polyreactivity"}
{"sequence": "QVQLVESGGGLVQAGGSLRLSCAASGSIFVHYAMGWYRQAPGKERELVASISTSGGRTRYADSVKGRFTISRDNAKNTVYLQMNSLKPEDTAVYYCAALRWGRRYDYWGQGTQVTVSS", "polyreactivity (PSR sort gate)": "high polyreactivity"}
{"sequence": "QVQLVESGGGLVQAGGSLRLSCAASGSIFVIYAMGWYRQAPGKERELVAAISRSGGRTYYADSVKGRFTISRDNAKNTVYLQMNSLKPEDTAVYYCAAEGSTYQGAPGVYYWGQGTQVTVSS", "polyreactivity (PSR sort gate)": "high polyreactivity"}
{"sequence": "QVQLVESGGGLVQAGGSLRLSCAASGSIFVIYAMGWYRQAPGKERELVAAITWNGGSTFYADSVKGRFTISRDNAKNTVYLQMNSLKPEDTAVYYCNAVAVSNSGWEYDYWGQGTQVTVSS", "polyreactivity (PSR sort gate)": "low polyreactivity"}
{"sequence": "QVQLVESGGGLVQAGGSLRLSCAASGSIFVIYAMGWYRQAPGKERELVAAITWNGGSTVYADSVKGRFTISRDNAKNTVYLQMNSLKPEDTAVYSCNAVAVSNSGWEYDYWGQGTQVTVSS", "polyreactivity (PSR sort gate)": "low polyreactivity"}
{"sequence": "QVQLVESGGGLVQAGGSLRLSCAASGSIFVIYTMGWYRQAPGKERELVAVITWSTGNTYYADSVKGRFTISRDNAKNTVYLQMNSLKPEDTAVYYCAARTTSRWRSGAYYYWGQGTQVTVSS", "polyreactivity (PSR sort gate)": "high polyreactivity"}
{"sequence": "QVQLVESGGGLVQAGGSLRLSCAASGSIFVKNVMGWYRQAPGKERELVAAITRGGRTYYADSVKGRFTISRDNAKNTVYLQMNSLKPEDTAVYYCNAYRLSYTYGYWGQGTQVTVSS", "polyreactivity (PSR sort gate)": "high polyreactivity"}
{"sequence": "QVQLVESGGGLVQAGGSLRLSCAASGSIFVKYAMGWYRQAPGKERELVAAISRSGTRTYYADSVKGRFTISRDNAKNTVYLQMNSLKPEDTAVYYCAAAATTVRAYEYWGQGTQVTLSS", "polyreactivity (PSR sort gate)": "high polyreactivity"}
{"sequence": "QVQLVESGGGLVQAGGSLRLSCAASGSIFVLYAMGWYRQAPGKERELVAAITTGGGTNYADSVKGRFTISRDNAKNTVYLQMNSLKPEDTAVYYCNADAYGTPEFTSYAVRYDYWGQGTQVTVSS", "polyreactivity (PSR sort gate)": "low polyreactivity"}
{"sequence": "QVQLVESGGGLVQAGGSLRLSCAASGSIFVNNALGWDRQAPGKDWELVAAISSRGGSTYYADSVKGRFTISRDNAKNTVYLQMHSLKPEDTAVYYCAAEYDGPYYSFYPEQRYYWGQGNQVTVSS", "polyreactivity (PSR sort gate)": "low polyreactivity"}
{"sequence": "QVQLVESGGGLVQAGGSLRLSCAASGSIFVNNAMGWYRQAPGKERELVAAIRRSGGNTYYADSVKGRFTISRDNAKNTVYLQLNSLKPEDTAVYYCNVVRRSDSIRAKSRDYWGQGTQVTVSS", "polyreactivity (PSR sort gate)": "high polyreactivity"}
{"sequence": "QVQLVESGGGLVQAGGSLRLSCAASGSIFVNNAMGWYRQAPGKERELVAAISRSGTRTYYADSVKGRFTISRDNAKNTVYLQMNSLKPEDTAVYYCAVDYYYRMDYWGQGTQVTVSS", "polyreactivity (PSR sort gate)": "high polyreactivity"}
{"sequence": "QVQLVESGGGLVQAGGSLRLSCAASGSIFVNNAMGWYRQAPGKERELVAAISSRSSRTFYADSVKGRFTISRDNAKISVYFHMNSLKPVDTGVYYWAVKKRSPHGDYCGQGTQVTVSS", "polyreactivity (PSR sort gate)": "high polyreactivity"}
{"sequence": "QVQLVESGGGLVQAGGSLRLSCAASGSIFVNNAMGWYRQAPGKERELVAAISSRSSRTFYADSVKGRFTISRDNAKNTVYLQMNSLKPDDNAVFYCAVNNRAPDGEYWGLGTQVTVSS", "polyreactivity (PSR sort gate)": "high polyreactivity"}
{"sequence": "QVQLVESGGGLVQAGGSLRLSCAASGSIFVNNAMGWYRQAPGKERELVAAISSRSSRTFYADSVKWRFTISRDNAKNTVYLQMNCLKPEDTAVYSCAVKKRAPDGDYWGQGTQVTVSS", "polyreactivity (PSR sort gate)": "high polyreactivity"}
{"sequence": "QVQLVESGGGLVQAGGSLRLSCAASGSIFVNYAMGWYRQAPGKERELVAAISGRGGSTYYADSVKGRFTISRDNAKNTVYLQMNSLKPEDTAVFYCARYGYYGHDWGQGTQVTVSS", "polyreactivity (PSR sort gate)": "high polyreactivity"}
{"sequence": "QVQLVESGGGLVQAGGSLRLSCAASGSIFVNYAMGWYRQAPGKERELVAAISTGGGRTFYADSVKGRFTISRDNAKNTVYLQMNSLKPEDTAVYYCNNLGRTEYDYWGQGTQVTVSS", "polyreactivity (PSR sort gate)": "high polyreactivity"}
{"sequence": "QVQLVESGGGLVQAGGSLRLSCAASGSIFVPNAMGWYRQAPGKERELVAAISGIGGSTSYADSVKGRFTISRDNAKNTVYLQMNSLKPEDTAVYYCARADKLHTRGWGRWGSGSYSWGQGTQVTVSS", "polyreactivity (PSR sort gate)": "low polyreactivity"}
{"sequence": "QVQLVESGGGLVQAGGSLRLSCAASGSIFVPYAMGWYIQAPGKERELVAAISSRGGSTYYADSVKGRFTISRDNAKNTVYLQMNSLKPEDTAVYYCNTDISRNYYWALYGYWGQGTQVTVSS", "polyreactivity (PSR sort gate)": "low polyreactivity"}
{"sequence": "QVQLVESGGGLVQAGGSLRLSCAASGSIFVPYAMGWYRQAPGKERELVAAINHGGGRTYADSVKGRFTISRDNAKNTVYLQMNSLKPEDTAVYYCAADGAHKIGYYRYYYWGQGTQVTVSS", "polyreactivity (PSR sort gate)": "low polyreactivity"}
{"sequence": "QVQLVESGGGLVQAGGSLRLSCAASGSIFVPYAMGWYRQAPGKERELVAVIRYRGGTTYYADSVKGRFTLSRDNAKNTVYLQMNSLKPEDTAVYYCEASARRYPPAAGVPYRYDYWGQGTQVTVSS", "polyreactivity (PSR sort gate)": "high polyreactivity"}
{"sequence": "QVQLVESGGGLVQAGGSLRLSCAASGSIFVQYAMGWYRQAPGKERELVATISSSGGSTYYADSVKGRFTISRDNAKNTVYLQMNRLKPEDTAVYYCAADWTLDPSYGYYADDYWGQGTQVTVSS", "polyreactivity (PSR sort gate)": "low polyreactivity"}
{"sequence": "QVQLVESGGGLVQAGGSLRLSCAASGSIFVRNAMGWYRQAPGKERELVAAISWRGGSTYYADSVKGRFTISRDNAKNTVYLQMNSLKPEDTAGYYCAARRWSPRSGLGYGYWGQGTQVTVSS", "polyreactivity (PSR sort gate)": "high polyreactivity"}
{"sequence": "QVQLVESGGGLVQAGGSLRLSCAASGSIFVRNAMGWYRQAPGKERELVAGISASGGSTYYADSVKGRFTISRDNAKNTVYLQMNSLKPEDTAVYYCANKVSTRFARYRYDYWGQGTQVTVSS", "polyreactivity (PSR sort gate)": "high polyreactivity"}
{"sequence": "QVQLVESGGGLVQAGGSLRLSCAASGSIFVRNGMGWYRQAPGKERELVASFTSGTITYYADSVKGRFTISRDNARNTVYLQMNRLKPDDTAVYYCAARRDRGRVKFYYWGQGTQVTVSS", "polyreactivity (PSR sort gate)": "high polyreactivity"}
{"sequence": "QVQLVESGGGLVQAGGSLRLSCAASGSIFVRNTMGWYRQAPGKERELVATISSGGRTYYADSVKGRFTISRDNAKNTVYLQMNSLKPEETAVYYCAAGYSYAQYSYPFLSFAFGYWGQGTQVTVSS", "polyreactivity (PSR sort gate)": "high polyreactivity"}
{"sequence": "QVQLVESGGGLVQAGGSLRLSCAASGSIFVRNVMGWYRQAPGKERELVAAISGSGGSTYYADSVKGRFTISRDNAKNTVYLQMNSLKPEDTAVYYCAAPRNLYGVYSYYYWGQGTQVTVSS", "polyreactivity (PSR sort gate)": "high polyreactivity"}
{"sequence": "QVQLVESGGGLVQAGGSLRLSCAASGSIFVRYDMGWYRQAPGKERELVAAISWNGGRTYYADSVKGRFTISRDNAKNTVYLQMNSLKPEDTAVYYCNAVSKGLGSGLDYWGQGTQVTVSS", "polyreactivity (PSR sort gate)": "high polyreactivity"}
{"sequence": "QVQLVESGGGLVQAGGSLRLSCAASGSIFVSNAMGWSRPAPGKDRELVAGINYSGGSTYYADSVKGRFTISRDNAKNTVYLQLTSLKPEDTAVYYCARRRPYQWPYNYWGQGTQVTVSS", "polyreactivity (PSR sort gate)": "high polyreactivity"}
{"sequence": "QVQLVESGGGLVQAGGSLRLSCAASGSIFVSNAMGWYRQAPGKERELVAAISGGRSTYYADSVKGRFTISRDNAKNTVYLQMNSLKPEDTAVYYCAKKGGHRTYGYDSWGQGTQVTVSS", "polyreactivity (PSR sort gate)": "low polyreactivity"}
{"sequence": "QVQLVESGGGLVQAGGSLRLSCAASGSIFVSNVMGWYRQSPGKERELVAAISSSGGRTNYADSVKGRFTISRDNAKNTVYLQMNSLKPEDTAVYYCAKAGRYANLPYGYWGQGTQVTVSS", "polyreactivity (PSR sort gate)": "high polyreactivity"}
{"sequence": "QVQLVESGGGLVQAGGSLRLSCAASGSIFVSYAMGWYRQAPGKERELVAAISRSGGRTYYADSVKGRFTISRDNAKNTVYLQMNSLKPEDTAVYYCAADYTKSSSPWPGYYWGQGTQVTVSS", "polyreactivity (PSR sort gate)": "high polyreactivity"}
{"sequence": "QVQLVESGGGLVQAGGSLRLSCAASGSIFVSYAMGWYRQAPGKERELVAAITRSGGSTYYADSVKGRFTISRDNAKNTVYLQMNSLKPEDTAVYYCAARSYLGAYRRYYWGQGTQVNVSS", "polyreactivity (PSR sort gate)": "high polyreactivity"}
{"sequence": "QVQLVESGGGLVQAGGSLRLSCAASGSIFVSYAMGWYRQAPGKERELVAAITSIGTRTYYADSVKGRFTISRDNAKNTVYLQINSLKPEDTAVYYCNAPRFWSRHGLRDYWGQVTQVTVSS", "polyreactivity (PSR sort gate)": "high polyreactivity"}
{"sequence": "QVQLVESGGGLVQAGGSLRLSCAASGSIFVTNAMGWYRQAPGKERELVAAIRGGGGSTYYADSVKGRFTISRDNAKNTVYLQMNSLKPEDTAVYYCNADRRGYLQSEMDYWGQGTQVTVSS", "polyreactivity (PSR sort gate)": "low polyreactivity"}
{"sequence": "QVQLVESGGGLVQAGGSLRLSCAASGSIFVTYALGWYRQAPGKERELVAVLTWGGGSTYYADSVKGRFTISRDNAKNTVYLQMNSLKPEDTAVYYCAKDSYYYRRDVTVDYWGQGTQVTVSS", "polyreactivity (PSR sort gate)": "low polyreactivity"}
{"sequence": "QVQLVESGGGLVQAGGSLRLSCAASGSIFVTYAMGWYRQAPGKERELVARITSGGSTYYADSVKGRFTISRDNAKNTVYLQMNSLKPEDTAVYYCAARRWLRYDLDYGGQGTQVTVSS", "polyreactivity (PSR sort gate)": "low polyreactivity"}
{"sequence": "QVQLVESGGGLVQAGGSLRLSCAASGSIFVTYAMGWYRQAPGKERELVASISWRGVSTRYADSVKGRFTISRDNAKNTVYLQMNSLKPEDTAVDYCAAVYRRTRSGIFDYWGQGTQVTVSS", "polyreactivity (PSR sort gate)": "high polyreactivity"}
